Changes are numbered by the printed parent chain. Values joined by “and” are separate entries in the source; they are usually repeats but may differ in a detail not shown here. Identical values can stand only once.
B1: BZ1 heterodimeric antibody (bispecific antibody, human IgG1, lambda, L234A L235A)
chain: QVQLVQSGAEVKKPGASVKVSCKASGYTFISYTMHWVRQAPGQGLEWIGYINPRSGYTHYNQKLKDRATLTADKSASTAYMELSSLRSEDTAVYYCARSAYYDYDGFAYWGQGTLVTVSSGGGGSGGGGSGGGGSGGGGSDIQMTQSPSSLSASVGDRVTITCSASSSVSYMNWYQQKPGKAPKRLIYDTSKLASGVPSRFSGSGSGTDFTLTISSLQPEDFATYYCQQWSSNPPTFGGGTKVEIKGGGGSDKTHTCPPCPAPEAAGGPSVFLFPPKPKDTLMISRTPEVTCVVVDVSHEDPEVKFNWYVDGVEVHNAKTKPREEQYNSTYRVVSVLTVLHQDWLNGKEYKCKVSNKALPAPIEKTISKAKGQPREPQVYTLPPSREEMTKNQVSLSCAVKGFYPSDIAVEWESNGQPENNYKTTPPVLDSDGSFFLVSKLTVDKSRWQQGNVFSCSVMHEALHNHYTQKSLSLSPGK
heavy: QVQLVESGGGLVKPGGSLRLSCAASGFTFSDDYMSWIRQAPGKGLEWVASVSNGRPTTYYADSVRGRFTISRDNAKNSLYLQMNSLRAEDTAVYYCAREGWSGEFTDWGQGTLVTVSSASTKGPSVFPLAPSSKSTSGGTAALGCLVKDYFPEPVTVSWNSGALTSGVHTFPAVLQSSGLYSLSSVVTVPSSSLGTQTYICNVNHKPSNTKVDKRVEPKSCDKTHTCPPCPAPEAAGGPSVFLFPPKPKDTLMISRTPEVTCVVVDVSHEDPEVKFNWYVDGVEVHNAKTKPREEQYNSTYRVVSVLTVLHQDWLNGKEYKCKVSNKALPAPIEKTISKAKGQPREPQVYTLPPSREEMTKNQVSLWCLVKGFYPSDIAVEWESNGQPENNYKTTPPVLDSDGSFFLYSKLTVDKSRWQQGNVFSCSVMHEALHNHYTQKSLSLSPGK
light: not shown
notes: Isotype IgG1/LALA, knob-in-hole; also called BZ1 bispecific antibody
B2: BZ1S (bispecific antibody, human IgG1, lambda, L234A L235A)
first polypeptide (anti-CD3 scFv-Fc fusion): B1 chain
second polypeptide (anti-CD38 heavy chain): B1 heavy with N53S
third polypeptide (anti-CD38 light chain): not shown
notes: also called BZ1S heterodimeric antibody; BZ1S bispecific antibody

Key:
[1] = molecular target: T1, Recombinant human CD38-his tag (human, UniProt P28907 43-300); assay: SPR (Biacore T200), 1:1 binding model; antigen not named on the sheet, taken as recombinant human CD38-his from Example 9
T1 construct: also called recombinant CD38 antigen; CD38 antigen; not shown: his tag

[2] = molecular target: T1, Recombinant human CD38-his tag; assay: SPR (Biacore T200), 1:1 binding model; antigen not named on the sheet, taken as recombinant human CD38-his from Example 9; row printed 'BZ1 Pool2 PA', assigned to BZ1S through legends paragraph 161 and paragraph 163
Method: Kinetic interactions between bispecific antibodies and CD38 antigen were measured at 25° C. using Biacore T200 surface plasmon resonance (GE Healthcare). Anti-human fragment crystallizable (Fc) antibody (Human Antibody Capture Kit) was immobilized on a Series S CM5 sensor chip to approximately 10000 RU using standard N-Hydroxysuccinimide/1-ethyl-3-(-3-dimethylaminopropyl) carbodiimide hydrochloride (NHS/EDC) coupling methodology. Antibodies (bispecific or mAb, approximately 2 μg/mL) were captured for 60 seconds at a flow rate 10 μL/min. Recombinant human CD38-his tag was serially diluted in running buffer (1×HBS-EP+). All measurements were conducted with a flow rate of 30 μL/min. Surfaces were regenerated with 3M MgCl₂ for 60 s. A 1:1 (Langmuir) binding model was used to fit the data.
Biacore binding kinetics of the CD38×CD3 bispecific antibodies towards each individual antigen as the first and sole binding event were obtained for the target combination: CD38/CD3. The bispecific antibody was immobilized onto a biosensor surface via amine coupled anti human Fc antibodies on a CM5 sensor chip (GE Healthcare) according to the manufacturer's recommendation. […] Some kinetics analysis of the parental mAb (anti-CD38) was performed with 200 seconds association phase and 300 seconds dissociation phase.

Binder	Kd [1]	koff [1]	kon [1]	Kd [2]	koff [2]	kon [2]
B1	1080 pM and 960 pM	0.00213 s⁻¹ and 0.00205 s⁻¹	1.97e+06 M⁻¹ s⁻¹			
B2				909 pM	0.00194 s⁻¹	2.14e+06 M⁻¹ s⁻¹

— patent US20220363758A1 (SORRENTO THERAPEUTICS, published 2022)
